{"source": "paper doi:10.1101/543108", "molecular_target": "ATP synthase c-subunit (c10-ring) (Polytomella sp.)", "assay": "cryo-EM structure"}
{"substance": "ATP synthase c-subunit (c10-ring) (natural protein)", "values": [{"measurement": "stoichiometry N", "result": 10}]}
